According to US10233437B2, “Hypochlorite resistant cyanuric acid hydrolases and methods of use thereof” (REGENTS OF THE UNIVERSITY OF MINNESOTA, priority 2015, dated 2019):

Tests used:
[1] = Circular dichroism thermal melting; format: physicochemical; conditions: CD at 220 nm, 25 μM protein, 55 to 90° C.
Protocol: The circular dichroism (CD) measurements were performed on a Jasco J-815 spectrometer with 25 μM protein in 50 mM M Tris-HCl buffer, pH 7.2 in a 1 mm path length cell. For thermal melting, the changes in CD spectra at of the proteins were sampled at 220 nm every 1° C. during continuous heating the solutions from 55 to 90° C. at 1 degree per minute. Data were normalized to the initial reading at 55 C.

[2] = Bleach sensitivity of CAH; format: biochemical; conditions: 30 μM protein pre-incubated with 1 mM bleach
Protocol: (§1) To determine bleach sensitivity of WT, C46A and C46S CAH, purified protein (30 μM) was pre-incubated with or without 1 mM bleach. At appropriate time points, aliquots of the protein samples were diluted 100 fold into a solution of 140 ppm cyanuric acid and incubated for 10 minutes before the cyanuric acid concentration was measured with the melamine turbidity assay. The results are plotted as the log of the percent of untreated-protein activity as a function of treatment time.

[3] = Resistance of CAH to mercury (II) salt; format: biochemical; conditions: 48 uM enzyme, 1.6 mM phenyl mercuric acetate, assayed after one minute
Protocol: The effect of a common heavy metal, mercury, on the activity of WT and variant CAH was also tested. […] Specifically, mercury (II) salts were used to test resistance, which are known to be particularly damaging to proteins. The WT or C46A enzymes (48 uM) were incubated with 1.6 mM phenyl mercuric acetate; the WT CAH enzyme retained 1% activity (+/−13% error) (so it was 99% inactivated) while the C46A mutant enzyme retained 89% activity (+1-11%) (so it was completely resistant within experimental error) when assayed after one minute.

[4] = Sensitivity of CAH to iodoacetamide; format: biochemical; conditions: 30 uM CAH, 20 mM iodoacetamide
Protocol: In addition to commonly used oxidants, the effect of a commonly used sulfhydryl reactive agent (iodoacetamide) was also tested on the activity of WT and variant CAH. It was reasoned that a sulfhydryl reactive compound might react with the cysteine sulfhydryl group of the wild-type protein to block substrate access to the active site much in the same way an oxidant could oxidize the cysteine sulfhydryl group and block active site access.
as §1, with “determine” for “determine bleach”, “C46S CAH to various oxidants or sulfhydryl reagents,” for “C46S CAH,”, “without the potential inhibitor, 8.5” for “without 1”, “mM hydrogen peroxide, 50 μM potassium permanganate, 22 μM (1 ppm) ozone or 20 mM iodoacetamide.” for “mM bleach.”, “turbidity assay (explained in previous document).” for “turbidity assay.”

[5] = Sensitivity of CAH to hydrogen peroxide; format: biochemical; conditions: 30 μM CAH, 8.5 mM H2O2
Protocol: as §1, with “determine” for “determine bleach”, “C46S CAH to various oxidants or sulfhydryl reagents,” for “C46S CAH,”, “without the potential inhibitor, 8.5” for “without 1”, “mM hydrogen peroxide, 50 μM potassium permanganate, 22 μM (1 ppm) ozone or 20 mM iodoacetamide.” for “mM bleach.”, “turbidity assay (explained in previous document).” for “turbidity assay.”

[6] = Inactivation of CAH by Michael addition; format: biochemical; conditions: 30 uM enzyme, 350 uM N-ethylmaleimide
Protocol: Inactivation of the WT and variant CAH from a Michael addition reaction was also investigated using N-ethylmaleimide. Specifically, the WT or C46A enzymes (30 uM) were incubated with 350 uM N-ethylmaleimide.

[7] = Cyanuric acid hydrolase activity (melamine turbidity assay); format: biochemical; conditions: 140 ppm cyanuric acid in phosphate buffered saline; 0.03 μM enzyme (0.12 μM for C46D, V, T)
Protocol: To determine CAH activity, 0.03 μM enzyme was incubated with a 140 ppm cyanuric acid (CYA) solution in phosphate buffered saline (138 mM NaCl, 3 mM KCl, 10 mM Na2HPO4, 2 mM KH2PO4). For the WT protein and the C46A and C46S variants, fractions were removed every 5 minutes to assay CYA concentration using a modified melamine turbidity assay (Downes et al. 1984). An equal volume of melamine solution (2.5 mg/mL in water) was added to cyanuric acid samples and mixed thoroughly. The absorbance at 600 nm was read 2 minutes after mixing. For the severely impaired CAH proteins (C46D, V and T), 0.12 μM protein was used and fractions were removed every hour for CYA measurement. Specific activity (nmol min^−1 mg^−1) was calculated as the average of triplicate data at two time points.

Molecule | Thermal melting curve compared to WT [1] | Resistance to inactivation by bleach [2] | Activity retained [3] | Effect of iodoacetamide on activity [4] | Decrease of sensitivity to hydrogen peroxide versus wild-type [5] | Protection from inactivation by N-ethylmaleimide [6] | Specific activity [7]
C46A: Moorella thermoacetica CAH with cysteine at residue 46 replaced with alanine (protein) MQKVEVFRIPTASPDDISGLATLIDSGKINPAEIVAILGKTEGNGAVNDFTRGFATQSLAMYLAEKLGISREEVVKKVAFIMSGGTEGVMTPHITVFVRKDVQEPAKPGKRLAVGVAFTRDFLPEELGRMEQVNEVARAVKEAMKDAQIDDPRDVHFVQIKCPLLTAERIEDAKRRGKDVVVNDTYKSMAYSRGASALGVALALGEISADKISNEAICHDWNLYSSVASTSAGVELLNDEIIVVGNSTNSASDLVIGHSVMKDAIDADAVRAALKDAGLKFDCCPPAEELAKIVNVLAKAEAASSGTVRGRRNTMLDDSDINHTRSARAVVNAVIASVVGDPMVYVSGGAEHQGPDGGGPIAVIARV | very closely resemble the WT curve | largely resistant to inactivation by bleach | 89% | not affected | over four-fold | completely protected | 10.03 µmol/min/mg
C46S: Moorella thermoacetica CAH with cysteine at residue 46 replaced with serine (protein) MQKVEVFRIPTASPDDISGLATLIDSGKINPAEIVAILGKTEGNGSVNDFTRGFATQSLAMYLAEKLGISREEVVKKVAFIMSGGTEGVMTPHITVFVRKDVQEPAKPGKRLAVGVAFTRDFLPEELGRMEQVNEVARAVKEAMKDAQIDDPRDVHFVQIKCPLLTAERIEDAKRRGKDVVVNDTYKSMAYSRGASALGVALALGEISADKISNEAICHDWNLYSSVASTSAGVELLNDEIIVVGNSTNSASDLVIGHSVMKDAIDADAVRAALKDAGLKFDCCPPAEELAKIVNVLAKAEAASSGTVRGRRNTMLDDSDINHTRSARAVVNAVIASVVGDPMVYVSGGAEHQGPDGGGPIAVIARV | very closely resemble the WT curve | largely resistant to inactivation by bleach | – | – | over four-fold | – | 6.972 µmol/min/mg
